Among the data in patent publication US20200040057A1 (IMMATICS BIOTECHNOLOGIES, published 2020) are peptide exchange yield values, retold here.

The experiment has as its target HLA-B*07 (human). Put plainly: UV peptide exchange ELISA; ++++ = yield >75%. A general note: An ELISA detects its analyte on a solid surface through an enzyme-linked reagent.

GPRTTQSSVL yielded a peptide exchange yield of over 75%.

SPFSGGPVSF: the peptide exchange yield was over 75%.

Molecule TPISNTGVL displayed a peptide exchange yield of over 75%.

Take SPLLMQRTL: the peptide exchange yield was over 75%.

The molecule APSRLLEL yielded a peptide exchange yield of over 75%.

On to SPYAGSTAF, for which the peptide exchange yield is over 75%.

In turn, HPRWIEPTVM registered a peptide exchange yield of over 75%.

RPDVVRTLL showed a peptide exchange yield of over 75%.

In turn, RPPPPCIAL came in with a peptide exchange yield of over 75%.

As for LPQLKPAL, the peptide exchange yield is over 75%.

In turn, SPRSNPVRL returned a peptide exchange yield of over 75%.

As for LPRSPPLKVL, the peptide exchange yield was over 75%.

Take APRLALDPDAL: the peptide exchange yield was over 75%.

RPLDTFRVL registered a peptide exchange yield of over 75%.

On to VPKPAIPSSSVL, for which the peptide exchange yield is over 75%.

The molecule APMHIDRNIL showed a peptide exchange yield of over 75%.

Consider FPYDKPLIM, for which the peptide exchange yield is over 75%.

For YPLSLALHF, the peptide exchange yield is over 75%.

As for TPHGITDIL, the peptide exchange yield is over 75%.

The molecule IPTSRVITL returned a peptide exchange yield of over 75%.

MPYNSAHHCVV came in with a peptide exchange yield of over 75%.

The molecule MVLGIGPVL yielded a peptide exchange yield of over 75%.

APVVFPAL showed a peptide exchange yield of over 75%.

As for VPLSSYVSI, the peptide exchange yield was over 75%.

For SPGWAQTQL, the peptide exchange yield was over 75%.

The molecule RPFSAIAEL came in with a peptide exchange yield of over 75%.

In turn, LPAPLRISL yielded a peptide exchange yield of over 75%.
